The record followed here is PMC6485186.

The data set concerns the target TNF-alpha (mouse) (Mus musculus, UniProt P06804 80-235). Kind of data set: nitrocellulose filter binding with qPCR.

Sequence of TNF-alpha (mouse) (P06804 80-235): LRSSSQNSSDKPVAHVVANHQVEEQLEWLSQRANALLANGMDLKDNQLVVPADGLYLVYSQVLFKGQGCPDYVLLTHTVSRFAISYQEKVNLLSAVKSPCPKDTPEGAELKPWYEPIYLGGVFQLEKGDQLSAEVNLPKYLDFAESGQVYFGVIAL

For the molecule GCGCCACTACAGGGGAGCTGCCATTCGAATAGGTGGGCCGC (ssDNA) [aptTNF-alpha], the binding result was “binds”.
